Results as given in the array DNA melting data of Ke et al..

Assay: melting temperature; melt of duplexes
Details: sodium 0.0675 M; strand 1 µM

## CGACGTGCCATATGTGCTG+CAGCACATCTGGCACGTCG ((((((((((.((((((((+)))))))).))))))))))
  Tm: 57.1 °C

## CGACGTGCCATATGTGCTG+CAGCACATGGAGCACGTCG ((((((((...((((((((+))))))))...))))))))
  Tm: 51.5 °C

## CGACGTGCCATATGTGCTG+CAGCACATGGCGCACGTCG ((((((((...((((((((+))))))))...))))))))
  Tm: 50.3 °C

## CGACGTGCCATATGTGCTG+CAGCACATGTCGCACGTCG ((((((((.(.((((((((+)))))))).).))))))))
  Tm: 50.5 °C

## CGACGTGCCATATGTGCTG+CAGCACATGTTGCACGTCG ((((((((.(.((((((((+)))))))).).))))))))
  Tm: 50.8 °C

## CGACGTGCCATATGTGCTG+CAGCACATTAAGCACGTCG ((((((((...((((((((+))))))))...))))))))
  Tm: 50.1 °C

## CGACGTGCCATATGTGCTG+CAGCACATTATGCACGTCG ((((((((...((((((((+))))))))...))))))))
  Tm: 50.3 °C

## CGACGTGCCATATGTGCTG+CAGCACATTGGGCACGTCG (((((((((..((((((((+))))))))..)))))))))
  Tm: 55.6 °C

## CGACGTGCCCAATGTGCTG+CAGCACATAATGCACGTCG ((((((((...((((((((+))))))))...))))))))
  Tm: 47.6 °C

## CGACGTGCCCAATGTGCTG+CAGCACATATAGCACGTCG ((((((((...((((((((+))))))))...))))))))
  Tm: 48.5 °C

## CGACGTGCCCAATGTGCTG+CAGCACATATCGCACGTCG ((((((((...((((((((+))))))))...))))))))
  Tm: 47.1 °C

## CGACGTGCCCAATGTGCTG+CAGCACATCCAGCACGTCG ((((((((...((((((((+))))))))...))))))))
  Tm: 49 °C

## CGACGTGCCCAATGTGCTG+CAGCACATCGAGCACGTCG ((((((((.(.((((((((+)))))))).).))))))))
  Tm: 50.3 °C

## CGACGTGCCCAATGTGCTG+CAGCACATCGGGCACGTCG ((((((((((.((((((((+)))))))).))))))))))
  Tm: 58.9 °C

## CGACGTGCCCAATGTGCTG+CAGCACATCGTGCACGTCG ((((((((.(.((((((((+)))))))).).))))))))
  Tm: 45.8 °C

## CGACGTGCCCAATGTGCTG+CAGCACATCTTGCACGTCG ((((((((...((((((((+))))))))...))))))))
  Tm: 48.1 °C

## CGACGTGCCCAATGTGCTG+CAGCACATGAGGCACGTCG (((((((((..((((((((+))))))))..)))))))))
  Tm: 56.1 °C

## CGACGTGCCCAATGTGCTG+CAGCACATGCGGCACGTCG (((((((((..((((((((+))))))))..)))))))))
  Tm: 54.3 °C

## CGACGTGCCCAATGTGCTG+CAGCACATGGAGCACGTCG ((((((((.(.((((((((+)))))))).).))))))))
  Tm: 55.5 °C

## CGACGTGCCCAATGTGCTG+CAGCACATGTAGCACGTCG ((((((((...((((((((+))))))))...))))))))
  Tm: 50.6 °C

## CGACGTGCCCAATGTGCTG+CAGCACATGTCGCACGTCG ((((((((...((((((((+))))))))...))))))))
  Tm: 49.5 °C

## CGACGTGCCCAATGTGCTG+CAGCACATGTGGCACGTCG (((((((((..((((((((+))))))))..)))))))))
  Tm: 56.2 °C

## CGACGTGCCCAATGTGCTG+CAGCACATTATGCACGTCG ((((((((..(((((((((+)))))))))..))))))))
  Tm: 50.1 °C

## CGACGTGCCCAATGTGCTG+CAGCACATTCGGCACGTCG (((((((((.(((((((((+))))))))).)))))))))
  Tm: 55.8 °C

## CGACGTGCCCAATGTGCTG+CAGCACATTGAGCACGTCG ((((((((.((((((((((+)))))))))).))))))))
  Tm: 57.6 °C

## CGACGTGCCCAATGTGCTG+CAGCACATTTAGCACGTCG ((((((((..(((((((((+)))))))))..))))))))
  Tm: 50.4 °C

## CGACGTGCCCCATGTGCTG+CAGCACATACCGCACGTCG ((((((((...((((((((+))))))))...))))))))
  Tm: 45.8 °C

## CGACGTGCCCCATGTGCTG+CAGCACATACTGCACGTCG ((((((((...((((((((+))))))))...))))))))
  Tm: 45.9 °C

## CGACGTGCCCCATGTGCTG+CAGCACATAGAGCACGTCG ((((((((.(.((((((((+)))))))).).))))))))
  Tm: 48.7 °C

## CGACGTGCCCCATGTGCTG+CAGCACATATCGCACGTCG ((((((((...((((((((+))))))))...))))))))
  Tm: 45.5 °C

## CGACGTGCCCCATGTGCTG+CAGCACATCAAGCACGTCG ((((((((...((((((((+))))))))...))))))))
  Tm: 47.3 °C

## CGACGTGCCCCATGTGCTG+CAGCACATCAGGCACGTCG (((((((((..((((((((+))))))))..)))))))))
  Tm: 52.5 °C

## CGACGTGCCCCATGTGCTG+CAGCACATCCAGCACGTCG ((((((((...((((((((+))))))))...))))))))
  Tm: 47.4 °C

## CGACGTGCCCCATGTGCTG+CAGCACATCCCGCACGTCG ((((((((...((((((((+))))))))...))))))))
  Tm: 46.2 °C

## CGACGTGCCCCATGTGCTG+CAGCACATCGAGCACGTCG ((((((((.(.((((((((+)))))))).).))))))))
  Tm: 48.7 °C

## CGACGTGCCCCATGTGCTG+CAGCACATCTAGCACGTCG ((((((((...((((((((+))))))))...))))))))
  Tm: 47.3 °C

## CGACGTGCCCCATGTGCTG+CAGCACATGAAGCACGTCG ((((((((..(((((((((+)))))))))..))))))))
  Tm: 52 °C

## CGACGTGCCCCATGTGCTG+CAGCACATGAGGCACGTCG (((((((((.(((((((((+))))))))).)))))))))
  Tm: 59.6 °C

## CGACGTGCCCCATGTGCTG+CAGCACATGCAGCACGTCG ((((((((..(((((((((+)))))))))..))))))))
  Tm: 51.9 °C

## CGACGTGCCCCATGTGCTG+CAGCACATGCTGCACGTCG ((((((((..(((((((((+)))))))))..))))))))
  Tm: 49.7 °C

## CGACGTGCCCCATGTGCTG+CAGCACATGTAGCACGTCG ((((((((..(((((((((+)))))))))..))))))))
  Tm: 51.9 °C

## CGACGTGCCCCATGTGCTG+CAGCACATGTCGCACGTCG ((((((((..(((((((((+)))))))))..))))))))
  Tm: 51.2 °C

## CGACGTGCCCCATGTGCTG+CAGCACATGTGGCACGTCG (((((((((.(((((((((+))))))))).)))))))))
  Tm: 58.8 °C

## CGACGTGCCCCATGTGCTG+CAGCACATGTTGCACGTCG ((((((((..(((((((((+)))))))))..))))))))
  Tm: 51.8 °C

## CGACGTGCCCCATGTGCTG+CAGCACATTAAGCACGTCG ((((((((...((((((((+))))))))...))))))))
  Tm: 47.2 °C

## CGACGTGCCCCATGTGCTG+CAGCACATTCGGCACGTCG (((((((((..((((((((+))))))))..)))))))))
  Tm: 51.5 °C

## CGACGTGCCCCATGTGCTG+CAGCACATTGGGCACGTCG ((((((((((.((((((((+)))))))).))))))))))
  Tm: 58.5 °C

## CGACGTGCCCGATGTGCTG+CAGCACATAACGCACGTCG ((((((((...((((((((+))))))))...))))))))
  Tm: 47.6 °C

## CGACGTGCCCGATGTGCTG+CAGCACATACAGCACGTCG ((((((((...((((((((+))))))))...))))))))
  Tm: 49.1 °C

## CGACGTGCCCGATGTGCTG+CAGCACATACGGCACGTCG (((((((((..((((((((+))))))))..)))))))))
  Tm: 53.5 °C

## CGACGTGCCCGATGTGCTG+CAGCACATAGCGCACGTCG ((((((((.(.((((((((+)))))))).).))))))))
  Tm: 50.8 °C

## CGACGTGCCCGATGTGCTG+CAGCACATATAGCACGTCG ((((((((...((((((((+))))))))...))))))))
  Tm: 49 °C
